Measurements taken from patent publication US20070099283.

Molecular target: T1, propeptide (prosequence) of proteinase K from Tritirachium album Limber
T1 chain: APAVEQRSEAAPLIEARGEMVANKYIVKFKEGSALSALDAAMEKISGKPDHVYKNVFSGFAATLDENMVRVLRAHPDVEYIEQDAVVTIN

B1: mature recombinant proteinase K from Tritirachium album Limber (processed, natured from pro-proteinase K) (protein)
chain: AAQTNAPWGLARISSTSPGTSTYYYDESAGQGSCVYVIDTGIEASHPEFEGRAQMVKTYYYSSRDGNGHGTHCAGTVGSRTYGVAKKTQLFGVKVLDDNGSGQYSTIIAGMDFVASDKNNRNCPKGVVASLSLGGGYSSSVNSAAARLQSSGVMVAVAAGNNNADARNYSPASEPSVCTVGASDRYDRRSSFSNYGSVLDIFGPGTSILSTWIGGSTRSISGTSMATPHVAGLAAYLMTLGKTTAASACRYIADTANKGDLSNIPFGTVNLLAYNNYQA
In the case of B1, the “proteinase K activity (chromogenic substrate test) of gel filtration fractions” value is reported as “no activity is found without prior activation”.
